The target of the first experiment is mouse B6 class I antigens (Mouse MHC Class I; D^b or K^b molecules on the surface of RMA-S cells). Kind of experiment: binding of 9-mer peptides within p117-139 to mouse B6 (H-2^b) class I antigens; RMA-S assay as for Table XLVII.
With SQASSGQAR [WT1 peptide P118-126 (…)], the Binding Affinity to Mouse MHC Class I turned out to be 2%.
Molecule PNAPYLPSC [WT1 peptide P129-137 (…)] gave a Binding Affinity to Mouse MHC Class I of 1%.
Still for that read-out and setting: the same measure for QARMFPNAP [WT1 peptide P124-132 (…)]: 1%; for ASSGQARMF [WT1 peptide P120-128 (…)]: 1%.
The same measure, in the same setting: the same measure for MFPNAPYLP [WT1 peptide P127-135 (…)]: 2%; for SSGQARMFP [WT1 peptide P121-129 (…)]: 1%; for QASSGQARM [WT1 peptide P119-127 (…)]: 2%.
ARMFPNAPY [WT1 peptide P125-133 (…)] registered a Binding Affinity to Mouse MHC Class I of 1%.
PSQASSGQA [WT1 peptide P117-125 (…)]: the Binding Affinity to Mouse MHC Class I is 2%.
Still for that read-out and setting: next, APYLPSCLE [WT1 peptide P131-139 (…)]: 1%; NAPYLPSCL [WT1 peptide P130-138 (…)]: 79%.
The molecule FPNAPYLPS [WT1 peptide P128-136 (…)] yielded a Binding Affinity to Mouse MHC Class I of 1%.

The next experiment shares this target. Briefly: RMA-S class I stabilisation, flow cytometry with FITC anti-D^b or anti-K^b; % increase of MFI over medium alone, peptide 25 ug/ml.
For the molecule ALLPAVPSL [WT1 peptide human p10-18 (…)], the Binding Affinity to Mouse MHC Class I stood at 2.2%.
In turn, NQMNLGATL [WT1 peptide p239-247 (…)] gave a Binding Affinity to Mouse MHC Class I of 1%.
Take SCLESQPAI [WT1 peptide human p136-144 (…)]: the Binding Affinity to Mouse MHC Class I turned out to be 52%.
In turn, GCNKRYFKL [WT1 peptide p329-337 (…)] showed a Binding Affinity to Mouse MHC Class I of 1.2%.
CMTWNQMNL [WT1 peptide p235-243 (…)]: the Binding Affinity to Mouse MHC Class I turned out to be 33.6%.
Molecule YSSDNLYQM [WT1 peptide p221-229 (…)] registered a Binding Affinity to Mouse MHC Class I of 0.8%.
Still for that read-out and setting: the same measure for QMTSQLECM [WT1 peptide p228-236 (…)]: 1.2%.
NLYQMTSQL [WT1 peptide p225-233 (…)] displayed a Binding Affinity to Mouse MHC Class I of 5.8%.

The values above are taken from US20120301492A1.
